# Laboratory results taken from IntAct's records for PubMed 36373674.
# B1: SMC5-SMC6 complex localization factor protein 2 (Homo sapiens), Q8IX21 (parent)
# chain: MTRRCMPARPGFPSSPAPGSSPPRCHLRPGSTAHAAAGKRTESPGDRKQSIIDFFKPASKQDRHMLDSPQKSNIKYGGSRLSITGTEQFERKLSSPKESKPKRVPPEKSPIIEAFMKGVKEHHEDHGIHESRRPCLSLASKYLAKGTNIYVPSSYHLPKEMKSLKKKHRSPERRKSLFIHENNEKNDRDRGKTNADSKKQTTVAEADIFNNSSRSLSSRSSLSRHHPEESPLGAKFQLSLASYCRERELKRLRKEQMEQRINSENSFSEASSLSLKSSIERKYKPRQEQRKQNDIIPGKNNLSNVENGHLSRKRSSSDSWEPTSAGSKQNKFPEKRKRNSVDSDLKSTRESMIPKARESFLEKRPDGPHQKEKFIKHIALKTPGDVLRLEDISKEPSDETDGSSAGLAPSNSGNSGHHSTRNSDQIQVAGTKETKMQKPHLPLSQEKSAIKKASNLQKNKTASSTTKEKETKLPLLSRVPSAGSSLVPLNAKNCALPVSKKDKERSSSKECSGHSTESTKHKEHKAKTNKADSNVSSGKISGGPLRSEYGTPTKSPPAALEVVPCIPSPAAPSDKAPSEGESSGNSNAGSSALKRKLRGDFDSDEESLGYNLDSDEEEETLKSLEEIMALNFNQTPAATGKPPALSKGLRSQSSDYTGHVHPGTYTNTLERLVKEMEDTQRLDELQKQLQEDIRQGRGIKSPIRIGEEDSTDDEDGLLEEHKEFLKKFSVTIDAIPDHHPGEEIFNFLNSGKIFNQYTLDLRDSGFIGQSAVEKLILKSGKTDQIFLTTQGFLTSAYHYVQCPVPVLKWLFRMMSVHTDCIVSVQILSTLMEITIRNDTFSDSPVWPWIPSLSDVAAVFFNMGIDFRSLFPLENLQPDFNEDYLVSETQTTSRGKESEDSSYKPIFSTLPETNILNVVKFLGLCTSIHPEGYQDREIMLLILMLFKMSLEKQLKQIPLVDFQSLLINLMKNIRDWNTKVPELCLGINELSSHPHNLLWLVQLVPNWTSRGRQLRQCLSLVIISKLLDEKHEDVPNASNLQVSVLHRYLVQMKPSDLLKKMVLKKKAEQPDGIIDDSLHLELEKQAYYLTYILLHLVGEVSCSHSFSSGQRKHFVLLCGALEKHVKCDIREDARLFYRTKVKDLVARIHGKWQEIIQNCRPTQGQLHDFWVPDS
# partner: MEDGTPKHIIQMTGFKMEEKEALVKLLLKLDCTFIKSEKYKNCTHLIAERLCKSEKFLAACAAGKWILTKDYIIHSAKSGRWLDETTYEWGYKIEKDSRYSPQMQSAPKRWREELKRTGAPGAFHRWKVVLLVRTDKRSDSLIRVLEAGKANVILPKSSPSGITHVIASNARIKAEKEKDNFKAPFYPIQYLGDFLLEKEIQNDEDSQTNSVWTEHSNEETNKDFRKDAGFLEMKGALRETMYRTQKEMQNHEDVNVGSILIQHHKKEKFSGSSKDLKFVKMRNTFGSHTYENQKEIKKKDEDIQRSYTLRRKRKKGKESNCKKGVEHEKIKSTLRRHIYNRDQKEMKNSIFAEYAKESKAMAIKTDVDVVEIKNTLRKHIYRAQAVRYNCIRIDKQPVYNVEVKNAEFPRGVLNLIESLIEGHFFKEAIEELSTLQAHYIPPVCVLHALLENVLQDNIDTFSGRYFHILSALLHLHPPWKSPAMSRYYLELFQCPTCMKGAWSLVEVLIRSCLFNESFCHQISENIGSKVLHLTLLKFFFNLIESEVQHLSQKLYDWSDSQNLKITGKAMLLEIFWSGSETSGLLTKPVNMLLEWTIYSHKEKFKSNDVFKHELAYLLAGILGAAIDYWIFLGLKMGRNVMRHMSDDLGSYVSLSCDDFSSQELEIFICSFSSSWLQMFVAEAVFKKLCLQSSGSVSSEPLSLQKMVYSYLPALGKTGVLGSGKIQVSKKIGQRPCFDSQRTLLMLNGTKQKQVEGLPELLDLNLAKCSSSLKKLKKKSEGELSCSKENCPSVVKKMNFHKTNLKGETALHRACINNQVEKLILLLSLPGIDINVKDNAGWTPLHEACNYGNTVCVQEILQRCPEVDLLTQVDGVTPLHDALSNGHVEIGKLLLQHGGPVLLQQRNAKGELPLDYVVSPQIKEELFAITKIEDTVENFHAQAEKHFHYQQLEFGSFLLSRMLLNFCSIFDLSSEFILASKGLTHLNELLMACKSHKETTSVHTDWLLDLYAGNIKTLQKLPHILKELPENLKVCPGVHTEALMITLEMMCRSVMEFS
# B2: SMC5-SMC6 complex localization factor protein 1 (Homo sapiens), Q9BQI6 (parent)
# chain: B1 partner
# partner: B1 chain
# Variants of: B1
# Settings: with slf1_human SLF1, Q9BQI6
row,Variant,effect of a mutation on the interaction
1,L775E;F786E;F792E,disrupting interaction strength
2,C820W;I821W,with no effect

# Results, then the variant that gave them:
row,effect of a mutation on the interaction,Variant
1,disrupting interaction strength,M831R;I835R
2,disrupting interaction strength,P957D;V959D;W1006A

# Variants of: B2
# Settings: with slf2_human SLF2, Q8IX21
row,effect of a mutation on the interaction,Variant
1,disrupting interaction strength,G464D;H468E;A472D;L476E
2,disrupting interaction strength,A1042D;I1045E;M1049E
3,disrupting interaction strength,F957E;L964E
